# Molecular target: human C3b (human, UniProt P01024 23-667; P01024 749-1663, limits assumed)
# Assay: cell-based or functional assay
# Chain of human C3b (P01024 23-667 limits assumed, form in doubt, chain 1 of 2): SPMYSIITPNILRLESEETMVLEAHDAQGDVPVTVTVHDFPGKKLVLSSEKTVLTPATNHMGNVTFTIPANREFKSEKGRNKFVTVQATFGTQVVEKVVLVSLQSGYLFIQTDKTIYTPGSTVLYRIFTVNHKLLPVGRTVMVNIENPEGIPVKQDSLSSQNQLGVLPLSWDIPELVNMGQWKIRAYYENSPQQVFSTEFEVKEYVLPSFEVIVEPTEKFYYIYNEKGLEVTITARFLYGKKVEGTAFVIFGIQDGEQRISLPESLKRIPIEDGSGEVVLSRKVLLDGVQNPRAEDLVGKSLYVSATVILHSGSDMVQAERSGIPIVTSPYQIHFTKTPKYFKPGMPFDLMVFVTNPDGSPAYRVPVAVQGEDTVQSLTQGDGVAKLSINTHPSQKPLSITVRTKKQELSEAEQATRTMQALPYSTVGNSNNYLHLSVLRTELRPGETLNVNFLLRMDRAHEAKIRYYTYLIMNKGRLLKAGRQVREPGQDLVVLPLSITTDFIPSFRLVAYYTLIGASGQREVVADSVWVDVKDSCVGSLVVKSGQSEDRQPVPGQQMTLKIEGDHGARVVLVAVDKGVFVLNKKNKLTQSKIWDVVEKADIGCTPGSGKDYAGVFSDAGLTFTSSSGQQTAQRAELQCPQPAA
# Chain of human C3b (P01024 749-1663 limits assumed, form in doubt, chain 2 of 2): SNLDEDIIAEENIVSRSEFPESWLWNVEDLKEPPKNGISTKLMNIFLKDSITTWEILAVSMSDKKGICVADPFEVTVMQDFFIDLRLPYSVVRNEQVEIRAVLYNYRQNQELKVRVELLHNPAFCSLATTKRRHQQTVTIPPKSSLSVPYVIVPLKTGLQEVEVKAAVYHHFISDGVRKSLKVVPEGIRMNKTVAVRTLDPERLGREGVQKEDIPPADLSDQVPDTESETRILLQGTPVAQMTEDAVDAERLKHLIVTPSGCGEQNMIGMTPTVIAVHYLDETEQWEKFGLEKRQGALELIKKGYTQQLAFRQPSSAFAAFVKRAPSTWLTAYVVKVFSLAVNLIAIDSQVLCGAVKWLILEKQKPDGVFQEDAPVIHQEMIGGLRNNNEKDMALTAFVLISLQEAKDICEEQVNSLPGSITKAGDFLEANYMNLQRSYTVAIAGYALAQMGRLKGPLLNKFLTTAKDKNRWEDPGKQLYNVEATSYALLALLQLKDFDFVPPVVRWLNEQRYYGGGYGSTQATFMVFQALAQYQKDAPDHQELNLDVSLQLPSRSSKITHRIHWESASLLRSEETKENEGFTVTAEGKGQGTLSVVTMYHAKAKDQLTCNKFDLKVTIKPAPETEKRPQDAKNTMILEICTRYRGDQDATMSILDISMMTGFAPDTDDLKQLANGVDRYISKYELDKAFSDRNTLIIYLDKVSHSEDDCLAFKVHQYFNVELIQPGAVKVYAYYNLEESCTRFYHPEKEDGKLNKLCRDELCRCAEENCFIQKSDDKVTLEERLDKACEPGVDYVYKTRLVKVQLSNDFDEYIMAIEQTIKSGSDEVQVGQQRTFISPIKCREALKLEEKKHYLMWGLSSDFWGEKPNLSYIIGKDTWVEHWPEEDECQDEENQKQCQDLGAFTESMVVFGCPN
binder,measurement,value
small polypeptide comprising CCPs 8-10 of CR1 (SEQ ID NO:3) (receptor) not shown,"IC50 of inhibition of MAC formation in zymosan activated human serum (Wieslab Complement system Screen kit ELISA, FIG. 9)",125 nM

# — patent US20260217791A1 (COMPLEMENT THERAPEUTICS, published 2026)
